Test results reported in the DeepSol protein solubility set.

Assay: soluble on expression in E. coli; label from the status in PepcDB or PDB records

| Sequence | soluble on expression in E. coli |
| --- | --- |
| MPAGLVISAPASGVGKTTLTLALARAWRNRGLSVQCFKSGPDYIDPAFHAAATGRASVNVDSWAMDRGGIAHLVGRGADADVVLAEGSMGLFDGVAARGVSGTGATADIAEMLGWPVLLVIDPSGQAQTAAAIAAGLRDYRPGVRLAGVVLNRVASPRHEDLVRRALDDAGIAVFGALPRHAEISLPKRHLGLVQAEEQAEIGKLIDEAARFVAEHVDLDAVLQSAAAWAPQPAANGLNVTPPGQRIALARDAAFSFVYPHMLEAWRAAGADISTFSPLADEAPDASADVCWLPGGYPELHAGKIAANARFCSGLRAFAETRPVHGECGGYMVLGTALTDADGVRHEMAGLLGLETSFAKRRMHLGYRLAELAAPMPGHSPGARLRGHEFHYSTIAAQPDMPLAVVHDATGAVIAETGSRRGNATGTFFHLIAEDRLEHHHHHH | soluble |
| MEQLKKQVCDYIESHEEESVKFLKRLIQEKSVSGDESGAQAIVIEKLRELGLELDIWEPSFSKMKDHPYFVSPRTSFSDSPNIVATLKGSGDGKSMILNGHIDVVPEGDVNQWEHHPYSGEKIGNRIYGRGTTDMKGGNVALMLAMEAIIESNIELKGDIYFQSVIEEESGGAGTLATILRGYKADGVIIPEPTNMKFFPKQQGSMWFRLRVKGKAAHGGTRYEGVSAIEKSMFVIEHVRKLEEKRNSRITDPLFKEIPIPIPINIGKIEGGSWPSSVPDELILEGRCGVAPNETIEAAKEEFENWIAELNDVDNWFVENPVEVEWFGARWVPGELEENHELITTLHHNFVEIEGNEPIIEASPWGTDGGLFTQIANVPTIVFGPGETKVAHYPNEYIEVDKMIAAAKIIACTLLDWCEVKK | not soluble |
| MRFERFVGIDPSLRTGFVALSPFGEVIEAKEIEKEGDDPARMSKLIQVVVDSVHDTDFVAIEGFGYASQRGFLLGGIGWGMRMELYRRGIPYIDVAPSLLKKFAGAKGNANKEKVVLEVYKRWGFESDSNNVIDAFVLAQIARAAKTETKLIQAQKEVLNKLFK | not soluble |
| MGSDKIHHHHHHMNNFFTRVDNLSRLSVEKHNVAFSLFDWPAHIAEDTWWQSPDVLSIALTDHIEQWDEAQLIKLAKWECINSFSLNYTGELELIQEVSRILDKVALSDAREYLYHLIDEENQHMWYFQKFCRAYGGKVYPNKKFQIEKQLMSPAKEHFLVFARILIFEEIGHYYNIQNARDSRVHPFVREINEAHYKDESRHIAYGRQVLEHLAKDAITDEGDALWLGQQLDKSIAINIAALYNPQAYRDAGITKGMALRESLLNHPNRIELHETKLLGSFKRHAERLGITLTDTRK | not soluble |
| MGSDKIHHHHHHMSIRIGISGWRYARWRGTFYPTGLAQRRELAYAGRCFPSVEINGSFYSLQRPESYQSWHDETPDDFVFAVKGPRFVTHMKRLRDCEQALANFFASGVLRLGEKLGPILWQLPPTLRFDDAVLDAFLSSLPRDTEAALALARKRDTTLMHGRTALSIDRKRPLRHALEMRHPSFCDPSCMKLLRKHKVGVVVADTAGKFPYLEDVTADFVYLRLHGDAQLYASGYSDHALDRWGERIAAWAAGGEPSDAQRVGPRASKRARRDVYCYFDNDMKVHAPFDARGLMQRLDLPTDCPAREEVV | not soluble |
| MGSDKIHHHHHHMTSAGTIEDAKGPAELRLALRQMLGEDIVLSETEEMLRFCRDWHGDVTTGTVAVIRPRSTQQVAAAVKACRELGLSIVPQGGNTGLVLGAIPDAPERQVVLSLSRMNRIRKIDPADFSAVVESGCILSELKDAIAKMGMFFPLALGAQGSCQIGGNVSTNAGGVNVLRYGMTRELVLGLEVVLPDGSILEGLSTLRKDNRGIDLKQLFIGAEGTLGIITAVSITLTPYPDHVATALLGLASLEDAIRLYRRARRDCCDLMSAFEFMPPLAFTLAQEAMPDLPIPISAEYPAYVLMEISGSGLVDVDDLMQRFLEGAMEEGLVLDGTIAASQTQARNLWLIREGMNEGQAKRGTHMRTDISVPLSQLASFVEEAEKAVSEALPGAVSVSYGHVGDGNVHLNVLPPAGSTPEERIQLIYKAKTVVNEVLDRYTGSISAEHGIGRLKRPDFDARLPATRRKLLTALKHAVDPEMIMNPGCQLRF | not soluble |
| MSGGPVKTPFLSFIIPAYNEEQRLPSYLERVIGFFAGQSYSFEIVVVDDGSSDGTAALVKALMAQHSCLRLEALDRNRGKGFAVKTGMSAAKGQLRVFADADGATPVEEIRRLLDAREQGADIAIGSRAMRSDECIVQGRVHRKIMGTVFNGLIRALAVRGIHDSQCGFKLFTASAAEDIFPRQRITGFGFDVELLFLARRLGYVVVEVPVNWSDVEGTKVRLVRDSFRMLGEVLRIRFTNLTGGYGDIPGKTLEHHHHHH | not soluble |
| KAIYNRNLGYSDGAGAVLALKKKGHQNACKIAGCELWLKIIERYSREKSFYLVGGKPEVIEETIQKLRKDFPRINIVGYRDGYLKGNDDEVLIEDIAAKKPDVVFVAMGSPKQELLMERMQRVHPNAIYQGLGGSFDVYTGRVERAPEWWIRHNLEFAYRLIKQPSRIKRQIHLVRFLFRVLTNRI | not soluble |
| MAHHHHHHMLRQCERLIVQLSQQVLEQEKDIHSLRAALHSSQNRRRRHRQRGGDEKRERAAAVSMAESFSVSTERRQHHHTHHITVKAPTQMTMTHEDSRLRLTLPSSMTPQVSPIHLSGDAGVDSATGPYPEAAVVAPHSPQSSGAGSAVPSPTRSVGKSSGEHGMAAALAFPSIVCDVSSFSDKTNVGLTPSAACDHPPSGESATADGLWASSLLSEPERSSSSSSLARHRRNTAQLTRNAQFETPRVNLDNQDAMSYLLCIFSSAKSTREADGGATAAMAEAGEAAPCGREHRGGAGVRSPNAPLQQQGEHVARRLFHLDPVDENEGSESGNEHSSGGAVSDYDRPAARRPFLPPLRDKRGDGDGSAPPNHKTCGAFDEDDAFLQERYARIVACALAAEFAASTTLVEEDEVEQQRGCKTGPRAPTAAWCRTTSRRDHSASATVSELLRLFTFQPATRHQPYSDGKGL | not soluble |
| MNNENKTHIADSVLDVIVVGGGINGAGIAADAAGRGLTVGLYEASDFASATSSASSKLIHGGLRYLEHYEFRLVSEALAEREVLLAKAPHIAKPMRFRLPHRPFLRPAWMIRAGLFLYDNLGKRTTLPASHSVDLAASGLLKSEITKGFEYSDCWVDDARLVILNAMAAEKNGAEVKNYCRVEKAIRVDNIWHVTVFDVQANVRFERKARALVNAAGPWVKQFFDDSLEDESPRNIRLVKGSHIVVPKIHNEEQAYILQNKDNRIVFVIPYMEDFSIIGTTDVEYKGDPRKVEISEEEVNYLIDVVNQHFVDQIKRDDVVWTYSGVRPLCDDESDSPQAITRDYTLELEQELDQAPLLSIFGGKLTTYRKLGETAMKMLNPYFAKMGTPWTRNVALPGGDFDYPRHQLVDNICCKHPWLAKETVTRYVNQFGTLTWTLLEGIECQSDMGELFAQGVYQAEIDYLIKHEFAKNAEDVLWRRTKLGLYLTEEEEKQIALYIESYLSHRHKVKLQNVILEHHHHHH | soluble |
| MGSDKIHHHHHHMTGNDWIGSALHNSITCMGHSAAALAAPFAQASRRLIATLQAGGQVLSCGNGGSSGDAQHLASELVNRFETTRRALPAIALSTDSSVVTAIANDVCYEQIFARQIEALGRPGDCLVAFSTSGNSTNVIAAARTAQQRGMWVLALTGKEGGQLALLLRPVDIELRVPEQNTARIQEVHLVLIHALCSGVDASFVGDAPASVFHTGQVLRDWEALDEACTFRRPLVFTNGVFDVLHRGHVQYLAEARAEGACLVVGVNSDASVRRLGKGADRPVNSEEDRMAVLAGLQAVDFVTVFDDDTPLKLIQHLQPDVLIKGGDWPIERIVGADWVQAGGGRVLSIPFRHERSTTALLQKIRGSQP | not soluble |
| AGIKVFGHPASIATRRVLIALHEKNLDFELVHVELKDGEHKKEPFLSRNPFGQVPAFEDGDLKLFESRAITQYIAHRYENQGTNLLQTDSKNISQYAIMAIGMQVEDHQFDPVASKLAFEQIFKSIYGLTTDEAVVAEEEAKLAKVLDVYEARLKEFKYLAGETFTLTDLHHIPAIQYLLGTPTKKLFTERPRVNEWVAEITKRPASEKVQ | soluble |
| SNAMELEQKLNLLNDLIVREIVNPLPPPYKVGVDLGTADIVLVVTDQEGIPVAGALKWASVVKDGLVVDYIGAIQIVRELKAKVERLLGSELFQAATAIPPGTVGRNAEACGHVVAGAGLELVTLVDEPVAAARALGINDGIVVDIGGGTTGIAVIEKGKITATFDEPTGGTHLSLVLAGSYKIPFEEAETIKKDFSRHREIMRVVRPVIEKMALIVKEVIKNYDQTLPVYVVGGTAYLTGFSEEFSRFLGKEVQVPIHPLLVTPLGIALFG | soluble |
| MRILAFPYTHTLSHLSRVLAVALELRRMGHEVVFAGESAKVSFVSQQGFDVVPIHEPDPEMLFGNIRSGKLRFVEDAELLQMLTADIEVIRSLKPDLVLSDGRFSAPLSTHLTNVRHAAIVNASSTEYRALPYVPFFDWMPPWLISRDAMIWKALVRLNLFLEMKLFDNVMKVFKRLSRELNTNRTVTATNCLTGKDITLLADIPEYFPSRNLPASYHYVGPLTWKSVLAPPAWWPLDIPSSPLVYVTMGTTGVSEFFSKLGPSLSTSFFSSIVTTGGQSSELKPMPGKVYVESYLDGDLVMERSDVVICHGGNGTIYQALSHGKPVIGIPTIPDQKFNMRRVEAMGFGKSLDLKQFLEKPSLLADTVKQVLSDHSFRNSAQKIQAVLKSYNAATTSAKILIDSILLEHHHHHH | not soluble |
| GMPIDTPTDASPADGSASDTVFFGIMSGLELGTFVPGQRLVETDLVAHFGVGRNSVREALQRLAAEGIVDLQRHRGAVIRRLSLQETLDVLDVAERMTGLLARAATRGSGNQPQVQALRASVQALVAAEKAQDGETFSNARRHFYRTLLEMGDNRELRRLFPTIHMPIVHAQHRLASLRQMRLDDYRRIATAVLAGEPDAAEAAGAAHVKNVRGAILDRQPA | soluble |
| PEKPAKTQKTSLDEALQWRDSLDKLLQNNYGLASFKSFLKSEFSEENLEFWIACEDYKKIKSPAKMAEKAKQIYEEFIQTEAPKEVNIDHFTKDITMKNLVEPSLSSFDMAQKRIHALMEKDSLPRFVRSEFYQELI | soluble |
| HHHHHHSSGLVPRGSHMRNYCTKTFGSAFSVTVVPTLKDNFSYLINDHTTHTLAAVDVNADYKPILTYIEEHLKQQGNADVTYTFSTILSTHKHWDHSGGNAKLKAELEAMNSTVPVVVVGGANDSIPAVTKPVREGDRVQVGDLSVEVIDAPCHTRGHVLYKVQHPQHPNDGVALFTGDTMFIAGIGAFFEGDEKDMCRAMEKVYHIHKGNDYALDKVTFIFPGHEYTSGFMTFSEKTFPDRASDDLAFIQAQRAKYAAAVKTGDPSVPSSLAEEKRQNLFLRVADPAFVAKMNQGNAHALMMYLYNACD | soluble |
| MGLCVSKGSTASSPQHYAVRYTEQVTPSPSPSVASTSPSLHDSTAIGSPLARRSVLLPHEVQQAAYQLAMRLNGRAIEDASDRKRLVDATATVHETRLALHRGRGKVDSDLRLSNGRSATYSSLSYCLGEDDENLLAGSALAAGAGNCDHNAAINTRRHAVRMEDGGQMMTVRDYEQTHLYALYQPPNSAEADESTVVLDSWGDGPAVLLRDSHWAESYGTSTHVIERFDKPDATDALARTNAFRAEIENPQTALHANARELETAFLANPAPGDIFSAMPVIAPHLAESTRRRLQECSPRTRNVLAADAARDAYGLDDAQANSPRTTKAILKEAKRLDALGRPPLSW | not soluble |
